For one molecule, IC50 results are on record in CN114773459A (UNIV SHENZHEN, dated 2022).

In this assay the target is 新型冠状病毒(SARS-CoV-2) S1蛋白 (野生型) (SARS-CoV-2, UniProt P0DTC2 16-685).

B1: 纳米抗体Nb-H6 (VHH)
VHH: QLVESGGGLVQAGDSLRLSCAASERALSSFHMGWFRQAPGKQRAFVAAIKWRDGTTYYADSVKGRFTISRDNAKNTVYLQMNSLEPEDTAVYYCYYRGRWGTYWGQGTQVTVSS
For orientation: IC50 means the concentration at which inhibition is half-maximal. The low end stands for greater potency, the high end for weaker potency. With B1, 9.8 µM corresponded to half-maximal inhibition (IC50).
